Measurements published in patent US11584938B2, “Plant EPSPS mutant containing L195P and S247G mutations and encoding gene and use thereof” (GEVOTO LLC, priority 2017, dated 2023).
Substitutions are numbered along the chain they refer to. Entries after “also recorded” stand apart in the source; their conditions may differ.

Test system: double knockout E. coli (EPSPS defective E. coli, EDCE)
Assay: growth of EPSPS defective E. coli transformed by the EPSPS gene in M9 culture media containing different glyphosate concentrations
Assay type: cell-based, E. coli DH5α
Conditions: for EPSPS enzyme activity: concluded from growth of defective E. coli at 0 mM glyphosate
Text: A method for detecting the glyphosate resistance of the soybean EPSPS mutant G1 provided in Example 1 and the soybean EPSPS mutant G3 provided in Example 2 is as follows:
according to the sequence of the nucleic acid molecule provided in the example, synthesizing the encoding gene that encodes the soybean EPSPS mutant G1 or G3 using a chemical synthesis method, introducing enzyme sites (Pac1 and Sbf1) at two ends thereof, connecting to an expression vector (for example, a pADV5 vector, the structure of which is as shown in FIG. 15) that has undergone the same restriction enzyme digestion treatment under the action of ligase after restriction enzyme digestion, then transforming double knockout E. coli, picking positive colonies after verification, inoculating the positive colonies to M9 culture media containing different glyphosate concentrations for growth, and observing the growth situation of the E. coli.
The wild-type soybean EPSPS (with an amino acid sequence represented by SEQ ID NO: 2 and an encoding gene sequence represented by SEQ ID NO: 1) and the soybean EPSPS mutant G2 (with an amino acid sequence represented by SEQ ID NO: 6, and a corresponding encoding gene sequence represented by SEQ ID NO: 5) merely containing the mutation P114(101)S were taken as controls.
In the above, the M9 basal culture medium can be prepared by the following method:
5×M9 salt solution: 6.78 g of Na2HPO4, 3.0 g of KH2PO4, 0.5 g of NaCl, and 1.0 g of NH4Cl were weighed, added with ddH2O to 200 ml, and subjected to high-temperature and high-pressure sterilization treatment;
20% glucose: 20 g of glucose was weighed, added with 80 ml of ddH2O for dissolving, diluted to 100 ml, and subjected to filtration and sterilization treatment;
1.0 M MgSO4: 24.6 g of MgSO4-7H2O was weighed, dissolved with 80 ml of ddH2O, diluted to 100 ml, and subjected to sterilization treatment;
1.0 M CaCl2: 11.1 g of CaCl2 was weighed, dissolved with 80 ml of ddH2O, diluted to 100 ml, and subjected to sterilization treatment; and
1000 ml of the M9 basal culture media were prepared by adding ddH2O to 200 ml of 5×M9 salt solution, 20 ml of 20% glucose, 2 ml of 1.0 M MgSO4 and 0.1 ml of 1.0 M CaCl2 to make up to 1000 ml.
In the above, the E. coli used was double knockout E. coli, namely, EPSPS defective E. coli (E. coli DH5α with EPSPS gene and C-P Lyase gene being knocked out, named as EDCE, wherein for a preparation method thereof, reference can be made to a Chinese invention patent with the filing number CN2016103256926).
The glyphosate resistance of the soybean EPSPS mutant G4 provided in Example 3 and the soybean EPSPS mutant G5 provided in Example 4 was verified with reference to the detection method in Experiment Example 1.
The wild-type wheat EPSPS (with an amino acid sequence represented by SEQ ID NO: 14, and a corresponding encoding gene sequence represented by SEQ ID NO: 13) and the wheat EPSPS mutant T2 (with an amino acid sequence represented by SEQ ID NO: 18, and a corresponding encoding gene sequence represented by SEQ ID NO: 17) merely containing the mutation P118(101)S were taken as controls to verify the glyphosate resistance of the wheat EPSPS mutants T1 and T3 provided in Example 5 and Example 6, and reference can be made to Experiment Example 1 for the method.
A method for verifying the glyphosate resistance of the wheat EPSPS mutants T4, T5, and T6 provided in Examples 7-9 is the same as that in Experiment Example 3.
The wild-type rice EPSPS R0 (with an amino acid sequence represented by SEQ ID NO: 28, and a corresponding encoding gene sequence represented by SEQ ID NO: 27) and the rice EPSPS mutant R2 (with an amino acid sequence represented by SEQ ID NO: 32, and a corresponding encoding gene sequence represented by SEQ ID NO: 31) merely containing the mutation P116(101)S were taken as controls to verify the glyphosate resistance of the rice EPSPS mutants R1 and R3 provided in Examples 10 and 11, and reference can be made to Experiment Example 1 for the method. […]

[1] = culture media containing 0 mM glyphosate
[2] = culture media containing 5 mM glyphosate
[3] = culture media containing 10 mM glyphosate
[4] = culture media containing 20 mM glyphosate

B1: R0: wild-type rice EPSPS, amino acid sequence SEQ ID NO: 28; control (protein, listed as Oryza sativa)
chain: MASNAAAAAAKAEEIVLQPIREISGAVQLPGSKSLSNRILLLSALSEGTTVVDNLLNSEDVHYMLEALKALGLSVEADKVAKRAVVVGCGGKFPVEKDAKEEVQLFLGNAGTAMRPLTAAVTAAGGNATYVLDGVPRMRERPIGDLVVGLKQLGADVDCFLGTECPPVRVKGIGGLPGGKVKLSGSISSQYLSALLMAAPLALGDVEIEIIDKLISIPYVEMTLRLMERFGVKAEHSDSWDRFYIKGGQKYKSPGNAYVEGDASSASYFLAGAAITGGTVTVQGCGTTSLQGDVKFAEVLEMMGAKVTWTDTSVTVTGPPREPYGKKHLKAVDVNMNKMPDVAMTLAVVALFADGPTAIRDVASWRVKETERMVAIRTELTKLGASVEEGPDYCIITPPEKLNITAIDTYDDHRMAMAFSLAACADVPVTIRDPGCTRKTFPNYFDVLSTFVRN
In the case of B1, the “growth of the E. coli transformed by the EPSPS” value (shortened to “growth … by the EPSPS”) [1] is reported as “could grow”, the “growth … by the EPSPS” value [2] is reported as “could not grow” and the “growth … by the EPSPS” value [3] is reported as “could not grow”.

B2: R4: rice EPSPS mutant, SEQ ID NO: 36, mutation S267(247)G (protein)
chain: B1 chain with S267G
B2 was tested, and the EPSPS enzyme activity was “normal EPSPS enzyme activity”, the “growth … by the EPSPS” value [1] was “could grow” and the “growth … by the EPSPS” value [3] was “could grow normally”. The “growth of the transformed E. coli compared with E. coli transformed by the control EPSPS named in the value” [3] was “superior to that of the E. coli transformed by R1” and the “growth … by the EPSPS” value [4] was “grew obviously”.

B3: R2: rice EPSPS mutant, SEQ ID NO: 32, merely containing the mutation P116(101)S; control (protein)
chain: B1 chain with P116S
For B3, the EPSPS enzyme activity was “normal EPSPS enzyme activity”, the “growth … by the EPSPS” value [1] was “could grow” and the “growth … by the EPSPS” value [3] was “could grow”. The “growth … by the EPSPS” value [4] was “could grow”.

B4: R1: rice EPSPS mutant, SEQ ID NO: 30, mutation L214(195)P (protein)
chain: B1 chain with L214P
B4 was tested, and the EPSPS enzyme activity was “normal EPSPS enzyme activity”, the “growth … by the EPSPS” value [1] was “could grow” and the “growth … by the EPSPS” value [2] was “could grow normally”. For the same molecule, the “growth … by the EPSPS” value [3] was “grew obviously; also recorded: could grow normally” and the “growth … by the EPSPS” value [4] was “grew obviously”.

B5: R5: rice EPSPS mutant, SEQ ID NO: 38, mutations S267(247)G and P116(101)S (protein)
chain: B1 chain with P116S, S267G
For B5, the EPSPS enzyme activity was “normal EPSPS enzyme activity”, the “growth … by the EPSPS” value [1] was “could grow” and the “growth … by the EPSPS” value [4] was “could grow”. The “growth of the transformed E. coli compared with E. coli transformed by the control EPSPS named in the value” [4] was “obviously superior to that of the E. coli transformed by R2”.

B6: R6: rice EPSPS mutant, SEQ ID NO: 40, mutations S267(247)G, L214(195)P and P116(101)S (protein)
chain: B1 chain with P116S, L214P, S267G
B6 was tested, and the EPSPS enzyme activity was “normal EPSPS enzyme activity”, the “growth … by the EPSPS” value [1] was “could grow” and the “growth … by the EPSPS” value [4] was “could grow”. For the same molecule, the “growth of the transformed E. coli compared with E. coli transformed by the control EPSPS named in the value” [4] was “superior to that of the E. coli transformed by R2”.

B7: R3: rice EPSPS mutant, SEQ ID NO: 34, mutations L214(195)P and P116(101)S (protein)
chain: B1 chain with P116S, L214P
With B7 the EPSPS enzyme activity was “normal EPSPS enzyme activity”, the “growth … by the EPSPS” value [1] was “could grow” and the “growth … by the EPSPS” value [3] was “could grow”. For the same molecule, the “growth of the transformed E. coli compared with E. coli transformed by the control EPSPS named in the value” [3] was “superior to that of the E. coli transformed by R2”.
